Our source for the IC50 values is patent publication US20070249061A1 (PROTEOGEN, published 2007).

Sequences and labels used below:
B1: HGLVHK-NH2 (peptide)
peptide: HGLVHK-NH2
notes: also called HGLVHK peptide; peptide number 7
B2: HGDVHK-NH2 (peptide)
peptide: HGDVHK-NH2
notes: also called HGDVHK peptide; peptide number 10
B3: HGDLHK-NH2 (peptide)
peptide: HGDLHK-NH2
notes: also called HGDLHK peptide; peptide number 4
B4: HHLLHK-NH2 (peptide)
peptide: HHLLHK-NH2
notes: also called HHLLHK peptide; peptide number 3
B5: HSDVHK-NH2 (peptide)
peptide: HSDVHK-NH2
notes: also called HSDVHK peptide; peptide number 11

No end group written: not given here.

The experiment deals with T1, integrin αvβ3 (UniProt P06756 31-1048; P05106 27-788).
T1 construct: Heterodimer immobilized on ProteoChip
T1 sequence (P06756 31-1048, chain 1 of 2): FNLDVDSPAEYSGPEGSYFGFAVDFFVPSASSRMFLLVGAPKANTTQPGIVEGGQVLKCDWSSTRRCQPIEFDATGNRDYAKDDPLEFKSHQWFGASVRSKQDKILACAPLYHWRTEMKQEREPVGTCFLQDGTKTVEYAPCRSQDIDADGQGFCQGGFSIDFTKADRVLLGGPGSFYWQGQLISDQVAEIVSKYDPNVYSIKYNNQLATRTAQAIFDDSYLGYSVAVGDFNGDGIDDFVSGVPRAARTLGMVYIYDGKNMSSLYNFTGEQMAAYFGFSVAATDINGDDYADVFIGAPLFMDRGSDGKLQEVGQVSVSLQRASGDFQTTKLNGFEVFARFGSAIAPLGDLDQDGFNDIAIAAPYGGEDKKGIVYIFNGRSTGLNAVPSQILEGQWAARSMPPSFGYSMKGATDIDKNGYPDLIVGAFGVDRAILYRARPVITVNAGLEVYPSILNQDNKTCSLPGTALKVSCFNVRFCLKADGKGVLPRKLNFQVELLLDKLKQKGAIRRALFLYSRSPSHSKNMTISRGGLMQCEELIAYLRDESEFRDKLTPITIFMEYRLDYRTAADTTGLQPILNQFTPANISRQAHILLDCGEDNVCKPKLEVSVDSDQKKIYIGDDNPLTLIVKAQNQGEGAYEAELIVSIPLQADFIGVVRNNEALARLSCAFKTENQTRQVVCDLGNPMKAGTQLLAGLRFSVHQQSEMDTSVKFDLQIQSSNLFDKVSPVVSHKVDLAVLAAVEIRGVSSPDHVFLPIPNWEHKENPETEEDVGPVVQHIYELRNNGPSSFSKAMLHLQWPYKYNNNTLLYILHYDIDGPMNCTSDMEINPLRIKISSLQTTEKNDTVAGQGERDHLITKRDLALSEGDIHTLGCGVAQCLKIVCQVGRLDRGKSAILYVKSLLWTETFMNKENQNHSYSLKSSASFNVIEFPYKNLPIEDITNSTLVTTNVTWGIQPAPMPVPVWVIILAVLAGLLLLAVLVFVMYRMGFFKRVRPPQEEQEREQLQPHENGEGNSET
T1 sequence (P05106 27-788, chain 2 of 2): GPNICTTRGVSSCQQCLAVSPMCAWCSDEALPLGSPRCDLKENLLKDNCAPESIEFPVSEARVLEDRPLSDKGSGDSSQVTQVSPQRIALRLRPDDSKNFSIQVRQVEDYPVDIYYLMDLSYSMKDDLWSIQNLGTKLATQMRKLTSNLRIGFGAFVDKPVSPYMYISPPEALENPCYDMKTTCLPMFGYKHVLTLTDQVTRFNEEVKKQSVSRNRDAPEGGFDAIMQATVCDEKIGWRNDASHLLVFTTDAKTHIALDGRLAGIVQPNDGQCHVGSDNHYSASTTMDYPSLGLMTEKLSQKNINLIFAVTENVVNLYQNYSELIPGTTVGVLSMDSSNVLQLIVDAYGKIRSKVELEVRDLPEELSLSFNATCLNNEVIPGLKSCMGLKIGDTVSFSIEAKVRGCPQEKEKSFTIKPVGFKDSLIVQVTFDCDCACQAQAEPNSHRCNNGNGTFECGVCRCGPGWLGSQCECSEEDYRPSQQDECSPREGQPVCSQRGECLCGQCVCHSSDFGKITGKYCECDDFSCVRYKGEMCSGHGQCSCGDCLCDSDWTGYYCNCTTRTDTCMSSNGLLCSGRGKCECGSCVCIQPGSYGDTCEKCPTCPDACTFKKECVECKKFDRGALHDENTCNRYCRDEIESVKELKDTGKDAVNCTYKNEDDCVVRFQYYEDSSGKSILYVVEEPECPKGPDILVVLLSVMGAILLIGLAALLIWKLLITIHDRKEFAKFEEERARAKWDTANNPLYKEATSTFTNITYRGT
The experiment can be described thus: competitive inhibition of integrin αvβ3-vitronectin interaction on protein chip.
Method: After reaction, those were washed for about 10 minutes with 0.5% PBST containing 3% BSA. Competitive inhibitory abilities of antagonists were measured by analyzing the degree of ligand binding as relative fluorescence intensity with a fluorescence scanner.
Regarding B1, the IC50 (usually the concentration needed to halve the response being measured) turned out to be 0.00243 ng/mL. In the case of B2 it was 0.0447 ng/mL. For B3 the value was 0.0307 ng/mL; for B4, 0.0034 ng/mL; for B5, 0.00174 ng/mL.

HHLVHK-NH2 (also called peptide number 9) [HHLVHK-NH2]: the IC50 came out at 0.313 ng/mL.

In turn, HSLVHK-NH2 (also called peptide number 8) [HSLVHK-NH2] gave an IC50 of 0.046 ng/mL.
